Source: patent US20220289855A1 (University of California, published 2022)

Biological target: T1, integrin α4β1 (mouse, UniProt Q00651 41-1039; P09055 21-798)
T1 construct: whole, on cells
Assay: flow cytometry, soluble ligand on mouse Tregs
Protocol: Splenic lymphocytes were isolated from Foxp3^GFP mice and were washed and resuspended in HBSS containing 0.1% BSA and 1 mM Ca²⁺/Mg²⁺, prior to incubation with integrin ligands for […] at 37° C. in the presence of IL-2 (10 ug/ml), rat-PC61 (5 ug/ml, Bioxcell), rat-rIgG (5 ug/ml, Bioxcell), murine-PC61 (5 ug/ml) and murine-IgG (5 ug/ml, Bioxcell). Cells were then incubated with AlexFluor647-conjugated anti-human IgG (1:200) for […] at 4° C. Then cells were washed twice before flow cytometry analysis using an Accuri C6 Plus (BD Biosciences). Data were analyzed using FlowJo software.

T1 sequence (Q00651 41-1039, chain 1 of 2): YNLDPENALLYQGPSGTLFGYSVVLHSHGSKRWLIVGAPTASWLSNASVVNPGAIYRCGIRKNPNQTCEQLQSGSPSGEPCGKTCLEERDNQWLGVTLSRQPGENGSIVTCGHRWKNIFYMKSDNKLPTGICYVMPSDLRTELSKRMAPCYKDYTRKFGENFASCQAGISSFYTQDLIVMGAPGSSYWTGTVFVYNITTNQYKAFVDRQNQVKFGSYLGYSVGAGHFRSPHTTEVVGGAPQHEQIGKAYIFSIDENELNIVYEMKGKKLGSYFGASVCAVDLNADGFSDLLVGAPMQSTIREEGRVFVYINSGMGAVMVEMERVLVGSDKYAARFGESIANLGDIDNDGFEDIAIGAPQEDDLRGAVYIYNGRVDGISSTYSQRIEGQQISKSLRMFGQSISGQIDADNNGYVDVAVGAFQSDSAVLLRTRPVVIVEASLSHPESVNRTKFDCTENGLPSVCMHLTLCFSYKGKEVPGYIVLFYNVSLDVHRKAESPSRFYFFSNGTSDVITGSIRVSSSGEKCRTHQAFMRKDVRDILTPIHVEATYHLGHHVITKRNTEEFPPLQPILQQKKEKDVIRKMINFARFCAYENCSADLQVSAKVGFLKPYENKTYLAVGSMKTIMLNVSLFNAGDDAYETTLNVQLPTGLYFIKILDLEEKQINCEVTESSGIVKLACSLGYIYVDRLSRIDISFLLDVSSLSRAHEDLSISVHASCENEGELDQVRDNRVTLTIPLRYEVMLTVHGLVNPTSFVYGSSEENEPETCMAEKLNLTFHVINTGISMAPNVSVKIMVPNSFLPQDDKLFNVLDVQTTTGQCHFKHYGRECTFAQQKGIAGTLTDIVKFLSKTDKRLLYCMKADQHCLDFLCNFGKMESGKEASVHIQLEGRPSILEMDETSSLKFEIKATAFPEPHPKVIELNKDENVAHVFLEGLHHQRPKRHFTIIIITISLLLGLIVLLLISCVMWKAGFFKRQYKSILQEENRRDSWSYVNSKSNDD
T1 sequence (P09055 21-798, chain 2 of 2): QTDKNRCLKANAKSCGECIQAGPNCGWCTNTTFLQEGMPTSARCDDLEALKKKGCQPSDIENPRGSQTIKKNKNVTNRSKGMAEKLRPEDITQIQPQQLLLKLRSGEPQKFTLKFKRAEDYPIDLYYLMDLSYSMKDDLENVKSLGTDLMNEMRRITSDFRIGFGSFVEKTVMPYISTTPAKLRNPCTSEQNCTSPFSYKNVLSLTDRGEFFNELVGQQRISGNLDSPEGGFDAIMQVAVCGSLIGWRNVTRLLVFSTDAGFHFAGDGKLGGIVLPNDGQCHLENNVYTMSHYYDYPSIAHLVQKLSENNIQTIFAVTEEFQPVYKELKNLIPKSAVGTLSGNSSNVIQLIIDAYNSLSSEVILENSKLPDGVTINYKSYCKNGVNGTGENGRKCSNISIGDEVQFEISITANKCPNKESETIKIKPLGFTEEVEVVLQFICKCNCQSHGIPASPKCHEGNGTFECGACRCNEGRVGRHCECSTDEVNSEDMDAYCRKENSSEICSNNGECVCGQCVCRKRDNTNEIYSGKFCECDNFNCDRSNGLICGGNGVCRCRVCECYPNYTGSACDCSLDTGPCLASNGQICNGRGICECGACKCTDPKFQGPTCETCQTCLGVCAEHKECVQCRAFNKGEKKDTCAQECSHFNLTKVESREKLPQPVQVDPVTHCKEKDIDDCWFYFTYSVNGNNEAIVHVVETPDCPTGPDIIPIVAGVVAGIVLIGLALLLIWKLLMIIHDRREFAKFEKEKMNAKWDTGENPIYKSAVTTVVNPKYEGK

binding result: binds
B1: purified mouse VCAM-Fc (Fc fusion, UniProt P29533 25-698, looked up)
chain: FKIEISPEYKTIAQIGDSMALTCSTTGCESPLFSWRTQIDSPLNAKVRTEGSKSVLTMEPVSFENEHSYLCTATCGSGKLERSIHVDIYSFPKDPEIQFSGPLEVGKPVTVKCLAPDIYPVYRLEIDLFKGDQLMNRQEFSSEEMTKSLETKSLEVTFTPVIEDIGKALVCRAKLHIDQIDSTLKERETVKELQVYISPRNTTISVHPSTRLQEGGAVTMTCSSEGLPAPEIFWGRKLDNEVLQLLSGNATLTLIAMRMEDSGVYVCEGVNLIGRDKAEVELVVQEKPFIVDISPGSQVAAQVGDSVVLTCAAIGCDSPSFSWRTQTDSPLNGVVRNEGAKSTLVLSSVGFEDEHSYLCAVTCLQRTLEKRTQVEVYSFPEDPVIKMSGPLVHGRPVTVNCTVPNVYPFDHLEIELLKGETTLMKKYFLEEMGIKSLETKILETTFIPTIEDTGKSLVCLARLHSGEMESEPKQRQSVQPLYVNVAPKETTIWVSPSPILEEGSPVNLTCSSDGIPAPKILWSRQLNNGELQPLSENTTLTFMSTKRDDSGIYVCEGINEAGISRKSVELIIQVSPKDIQLTVFPSKSVKEGDTVIISCTCGNVPETWIILKKKAKTGDMVLKSVDGSYTIRQAQLQDAGIYECESKTEVGSQLRSLTLDVKGKEHNKDYFSPE
notes: also called VCAM-1; soluble VCAM-1; not shown: Fc part, detected with anti-Human Fc
